Laboratory results reported in paper PMC10557143, “Promoter R-Loops Recruit U2AF1 to Modulate Its Phase Separation and RNA Splicing”.

How the values were obtained:
U2AF1 [1] = molecular target: T1, U2AF1 (human, UniProt Q01081 1-240); experiment: fluorescence anisotropy; 100 mM K+; Anisotropy: 10 nM probe, 10 mM Tris-HCl pH 7.5, 1 mM EDTA, 100 mM KCl, 0.1 mM DTT, 10 ug/mL BSA, 30 min on ice; EMSA same but Tris pH 8.0, 6% native PAGE in 1x; conditions: protein: recombinant, tags: His6 (pET30a), label: 5' TAMRA
T1 sequence: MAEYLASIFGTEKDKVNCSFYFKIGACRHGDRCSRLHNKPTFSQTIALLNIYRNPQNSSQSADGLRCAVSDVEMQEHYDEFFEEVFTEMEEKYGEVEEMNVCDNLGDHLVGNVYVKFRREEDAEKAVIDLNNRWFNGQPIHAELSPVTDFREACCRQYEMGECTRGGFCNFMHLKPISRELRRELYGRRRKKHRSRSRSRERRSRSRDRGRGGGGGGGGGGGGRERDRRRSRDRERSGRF

U2AF1 [2] = molecular target: T1, U2AF1; experiment: fluorescence anisotropy; Anisotropy: 10 nM probe, 10 mM Tris-HCl pH 7.5, 1 mM EDTA, 100 mM KCl, 0.1 mM DTT, 10 ug/mL BSA, 30 min on ice; EMSA same but Tris pH 8.0, 6% native PAGE in 1x; conditions: protein: recombinant, tags: His6 (pET30a)
U2AF1-ZF2 = molecular target: T2, U2AF1-ZF2 (human, UniProt Q01081 149-176); experiment: as above; conditions: protein: recombinant; tags: His6 (pET30a); label: 5' TAMRA; parallel intramolecular G4
T2 chain: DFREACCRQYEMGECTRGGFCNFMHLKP

B1: cMYC_M4 (ssDNA)
DNA: TGAGGGTGAGGAGTGTGGGGAAGG
Kd (U2AF1 [1]): 0.022 ± 0.001 µM

B2: 2KF8_M4 (ssDNA)
DNA: GGGTTAGTGTTAGTGTTAGGGT
Kd (U2AF1 [1]): 0.01 ± 0.002 µM

B3: cMYC G4-R-loop (mixed)
?: GCGAGGGGCGGCCGGAGAGC
DNA 1: CCGCTCCGGCAGCTCAGGCCCTGGCGCTCTCCGGCCGCCCCTCGCCCGCCCGGGCTCCTCCTCCTGTGCC
DNA 2: GGCACAGGAGGAGGAGTTTTTTCTGAGGGTGGGGAGGGTGGGGAAGGCATTTTTTGAGCTGCCGGAGCGG
Kd (U2AF1 [2]; label: 5' Cy3 on RNA strand, R-loop bubble: strand 1 RNA, strand 2 template DNA, strand 3 displaced DNA, some slow-migrating putative intermolecular G4): 0.0035 µM

B4: cMYC M4-R-loop (mixed)
?: GCGAGGGGCGGCCGGAGAGC
DNA 1: CCGCTCCGGCAGCTCAGGCCCTGGCGCTCTCCGGCCGCCCCTCGCCCGCCCGGGCTCCTCCTCCTGTGCC
DNA 2: GGCACAGGAGGAGGAGTTTTTTCTGAGGGTGAGGAGTGTGGGGAAGGCATTTTTTGAGCTGCCGGAGCGG
Kd (U2AF1 [2]; label: 5' Cy3 on RNA strand, R-loop bubble: strand 1 RNA, strand 2 template DNA, strand 3 displaced DNA): 0.013 µM

B5: 2KF8_G4 (structured_DNA)
DNA: GGGTTAGGGTTAGGGTTAGGGT
Kd (U2AF1 [1]; antiparallel intramolecular G4): 0.009 ± 0.001 µM

B6: hTel_G4 (structured_DNA)
DNA: AAAGGGTTAGGGTTAGGGTTAGGGAA
Kd (U2AF1 [1]; hybrid-type intramolecular G4): 0.05 ± 0.006 µM

B7: cMYC_G4 (structured_DNA)
DNA: TGAGGGTGGGGAGGGTGGGGAAGG
Kd (U2AF1 [1]; parallel intramolecular G4): 0.0108 ± 0.0009 µM
binding signal (U2AF1-ZF2): > 10 fold lower affinity than full length

B8: cKIT_G4 (structured_DNA)
DNA: AGGGAGGGCGCTGGGAGGAGGG
Kd (U2AF1 [1]; parallel intramolecular G4): 0.015 ± 0.002 µM

B9: hTel_M4 (ssDNA)
DNA: AAAGGGTTAGTGTTAGTGTTAGGGAA
Kd (U2AF1 [1]): 0.06 ± 0.006 µM

B10: U2AF1_RNA Motif (AG motif) (ssRNA)
RNA: UUUUAGGU
Kd (U2AF1 [2]; label: 5' Cy3): 0.35 µM

B11: RNA/DNA hybrid (DNA:RNA)
?: GCGAGGGGCGGCCGGAGAGC
DNA: GCTCTCCGGCCGCCCCTCGC
Kd (U2AF1 [2]; label: 5' Cy3 on RNA strand, blunt, strand 1 RNA, strand 2 DNA): 0.0067 µM

B12: cKIT_M4 (ssDNA)
DNA: AGGGAGGGCTCTGTGAGGAGGG
Kd (U2AF1 [1]): 0.019 ± 0.004 µM
